Laboratory results as given in publication doi:10.1101/2025.07.11.664400 (bioRxiv, 2025).

T1: RecB (E. coli, UniProt P08394 1-1180)
T1 sequence: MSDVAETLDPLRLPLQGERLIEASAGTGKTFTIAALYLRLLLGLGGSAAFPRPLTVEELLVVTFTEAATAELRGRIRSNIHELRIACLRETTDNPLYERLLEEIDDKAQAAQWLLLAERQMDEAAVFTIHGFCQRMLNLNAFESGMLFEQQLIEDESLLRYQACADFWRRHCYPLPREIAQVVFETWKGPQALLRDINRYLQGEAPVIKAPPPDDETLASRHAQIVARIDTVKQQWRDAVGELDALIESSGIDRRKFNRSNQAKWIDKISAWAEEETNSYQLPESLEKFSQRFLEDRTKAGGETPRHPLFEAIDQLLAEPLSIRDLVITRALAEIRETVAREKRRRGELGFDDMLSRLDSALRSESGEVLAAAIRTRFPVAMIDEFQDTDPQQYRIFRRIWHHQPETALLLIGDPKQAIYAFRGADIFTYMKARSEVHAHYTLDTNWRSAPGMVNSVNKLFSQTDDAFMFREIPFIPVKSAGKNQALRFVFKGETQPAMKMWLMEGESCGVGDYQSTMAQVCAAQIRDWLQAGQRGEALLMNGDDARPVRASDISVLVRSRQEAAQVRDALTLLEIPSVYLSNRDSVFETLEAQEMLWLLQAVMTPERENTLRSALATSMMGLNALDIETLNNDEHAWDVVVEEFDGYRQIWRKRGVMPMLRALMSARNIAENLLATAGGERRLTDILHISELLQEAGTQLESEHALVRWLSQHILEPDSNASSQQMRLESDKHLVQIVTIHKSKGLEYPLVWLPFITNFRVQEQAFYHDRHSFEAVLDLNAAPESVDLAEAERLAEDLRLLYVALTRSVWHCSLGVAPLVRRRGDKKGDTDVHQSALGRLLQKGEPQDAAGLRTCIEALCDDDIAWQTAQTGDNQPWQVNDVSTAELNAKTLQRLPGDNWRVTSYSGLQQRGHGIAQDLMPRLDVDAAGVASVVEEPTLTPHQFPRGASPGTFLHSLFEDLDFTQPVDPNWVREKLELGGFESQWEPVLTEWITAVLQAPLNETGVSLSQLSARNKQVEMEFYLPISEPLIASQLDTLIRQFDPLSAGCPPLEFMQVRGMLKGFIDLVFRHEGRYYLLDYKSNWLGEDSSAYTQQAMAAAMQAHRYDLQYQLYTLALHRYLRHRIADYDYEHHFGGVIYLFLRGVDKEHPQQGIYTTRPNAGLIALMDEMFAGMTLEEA

B1: RecC (natural protein)
chain: MLRVYHSNRLDVLEALMEFIVERERLDDPFEPEMILVQSTGMAQWLQMTLSQKFGIAANIDFPLPASFIWDMFVRVLPEIPKESAFNKQSMSWKLMTLLPQLLEREDFTLLRHYLTDDSDKRKLFQLSSKAADLFDQYLVYRPDWLAQWETGHLVEGLGEAQAWQAPLWKALVEYTHQLGQPRWHRANLYQRFIETLESATTCPPGLPSRVFICGISALPPVYLQALQALGKHIEIHLLFTNPCRYYWGDIKDPAYLAKLLTRQRRHSFEDRELPLFRDSENAGQLFNSDGEQDVGNPLLASWGKLGRDYIYLLSDLESSQELDAFVDVTPDNLLHNIQSDILELENRAVAGVNIEEFSRSDNKRPLDPLDSSITFHVCHSPQREVEVLHDRLLAMLEEDPTLTPRDIIVMVADIDSYSPFIQAVFGSAPADRYLPYAISDRRARQSHPVLEAFISLLSLPDSRFVSEDVLALLDVPVLAARFDITEEGLRYLRQWVNESGIRWGIDDDNVRELELPATGQHTWRFGLTRMLLGYAMESAQGEWQSVLPYDESSGLIAELVGHLASLLMQLNIWRRGLAQERPLEEWLPVCRDMLNAFFLPDAETEAAMTLIEQQWQAIIAEGLGAQYGDAVPLSLLRDELAQRLDQERISQRFLAGPVNICTLMPMRSIPFKVVCLLGMNDGVYPRQLAPLGFDLMSQKPKRGDRSRRDDDRYLFLEALISAQQKLYISYIGRSIQDNSERFPSVLVQELIDYIGQSHYLPGDEALNCDESEARVKAHLTCLHTRMPFDPQNYQPGERQSYAREWLPAASQAGKAHSEFVQPLPFTLPETVPLETLQRFWAHPVRAFFQMRLQVNFRTEDSEIPDTEPFILEGLSRYQINQQLLNALVEQDDAERLFRRFRAAGDLPYGAFGEIFWETQCQEMQQLADRVIACRQPGQSMEIDLACNGVQITGWLPQVQPDGLLRWRPSLLSVAQGMQLWLEHLVYCASGGNGESRLFLRKDGEWRFPPLAAEQALHYLSQLIEGYREGMSAPLLVLPESGGAWLKTCYDAQNDAMLDDDSTLQKARTKFLQAYEGNMMVRGEGDDIWYQRLWRQLTPETMEAIVEQSQRFLLPLFRFNQS

What was measured:
RecBCD = RecBCD (Escherichia coli, UniProt P08394;P07648;P04993 1-1180;1-1122;1-608); assay: fluorescence competition
RecBΔNucCD = RecBΔNucCD (Escherichia coli, UniProt P08394;P07648;P04993 1-929;1-1122;1-608); assay: fluorescence competition
RecC = molecular target: B1; assay: AUC
RecB = molecular target: T1, RecB; assay: AUC

| binding result (RecC) | binding result (RecB) | Binder | Ka (RecBCD) | Ka (RecBΔNucCD) |
| --- | --- | --- | --- | --- |
|  |  | 3'-dT2 (dsDNA) DNA 1: CCATGGCTCCTGAGCTAGCTGCAGTAGCCTAAAGGATGAAACTAGGATCTTATGCTCCAGTT DNA 2: CTGGAGCATAAGATCCTAGTTTCATCCTTTAGGCTACTGCAGCTAGCTCAGGAGCCATGGTT | 2.1e+07 M⁻¹ | 9.6e+07 M⁻¹ |
| binds |  | RecB^ΔNuc (RecB with the nuclease domain, residues 930-1180, deleted) (domain or fragment) MSDVAETLDPLRLPLQGERLIEASAGTGKTFTIAALYLRLLLGLGGSAAFPRPLTVEELLVVTFTEAATAELRGRIRSNIHELRIACLRETTDNPLYERLLEEIDDKAQAAQWLLLAERQMDEAAVFTIHGFCQRMLNLNAFESGMLFEQQLIEDESLLRYQACADFWRRHCYPLPREIAQVVFETWKGPQALLRDINRYLQGEAPVIKAPPPDDETLASRHAQIVARIDTVKQQWRDAVGELDALIESSGIDRRKFNRSNQAKWIDKISAWAEEETNSYQLPESLEKFSQRFLEDRTKAGGETPRHPLFEAIDQLLAEPLSIRDLVITRALAEIRETVAREKRRRGELGFDDMLSRLDSALRSESGEVLAAAIRTRFPVAMIDEFQDTDPQQYRIFRRIWHHQPETALLLIGDPKQAIYAFRGADIFTYMKARSEVHAHYTLDTNWRSAPGMVNSVNKLFSQTDDAFMFREIPFIPVKSAGKNQALRFVFKGETQPAMKMWLMEGESCGVGDYQSTMAQVCAAQIRDWLQAGQRGEALLMNGDDARPVRASDISVLVRSRQEAAQVRDALTLLEIPSVYLSNRDSVFETLEAQEMLWLLQAVMTPERENTLRSALATSMMGLNALDIETLNNDEHAWDVVVEEFDGYRQIWRKRGVMPMLRALMSARNIAENLLATAGGERRLTDILHISELLQEAGTQLESEHALVRWLSQHILEPDSNASSQQMRLESDKHLVQIVTIHKSKGLEYPLVWLPFITNFRVQEQAFYHDRHSFEAVLDLNAAPESVDLAEAERLAEDLRLLYVALTRSVWHCSLGVAPLVRRRGDKKGDTDVHQSALGRLLQKGEPQDAAGLRTCIEALCDDDIAWQTAQTGDNQPWQVNDVSTAELNAKTLQRLPGDNWRVTSYSGLQQRGHGIAQDLMPRLDVDAA |  |  |
|  |  | 3'-dT4 (dsDNA) DNA 1: CCATGGCTCCTGAGCTAGCTGCAGTAGCCTAAAGGATGAAACTAGGATCTTATGCTCCAGTTTT DNA 2: CTGGAGCATAAGATCCTAGTTTCATCCTTTAGGCTACTGCAGCTAGCTCAGGAGCCATGGTTTT | 4.7e+07 M⁻¹ | 3.3e+08 M⁻¹ |
|  | binds | B1 |  |  |
| binds |  | RecD (natural protein) MKLQKQLLEAVEHKQLRPLDVQFALTVAGDEHPAVTLAAALLSHDAGEGHVCLPLSRLENNEASHPLLATCVSEIGELQNWEECLLASQAVSRGDEPTPMILCGDRLYLNRMWCNERTVARFFNEVNHAIEVDEALLAQTLDKLFPVSDEINWQKVAAAVALTRRISVISGGPGTGKTTTVAKLLAALIQMADGERCRIRLAAPTGKAAARLTESLGKALRQLPLTDEQKKRIPEDASTLHRLLGAQPGSQRLRHHAGNPLHLDVLVVDEASMIDLPMMSRLIDALPDHARVIFLGDRDQLASVEAGAVLGDICAYANAGFTAERARQLSRLTGTHVPAGTGTEAASLRDSLCLLQKSYRFGSDSGIGQLAAAINRGDKTAVKTVFQQDFTDIEKRLLQSGEDYIAMLEEALAGYGRYLDLLQARAEPDLIIQAFNEYQLLCALREGPFGVAGLNERIEQFMQQKRKIHRHPHSRWYEGRPVMIARNDSALGLFNGDIGIALDRGQGTRVWFAMPDGNIKSVQPSRLPEHETTWAMTVHKSQGSEFDHAALILPSQRTPVVTRELVYTAVTRARRRLSLYADERILSAAIATRTERRSGLAALFSSRE |  |  |
